According to US20250051465A1 (published 2025):

T1: full length human LEPR on cells (human, UniProt P48357 22-1165)
T1 construct: also called HEK293/Stat3-luc/hLEPR-FL; hLEPR-FL
T1 sequence: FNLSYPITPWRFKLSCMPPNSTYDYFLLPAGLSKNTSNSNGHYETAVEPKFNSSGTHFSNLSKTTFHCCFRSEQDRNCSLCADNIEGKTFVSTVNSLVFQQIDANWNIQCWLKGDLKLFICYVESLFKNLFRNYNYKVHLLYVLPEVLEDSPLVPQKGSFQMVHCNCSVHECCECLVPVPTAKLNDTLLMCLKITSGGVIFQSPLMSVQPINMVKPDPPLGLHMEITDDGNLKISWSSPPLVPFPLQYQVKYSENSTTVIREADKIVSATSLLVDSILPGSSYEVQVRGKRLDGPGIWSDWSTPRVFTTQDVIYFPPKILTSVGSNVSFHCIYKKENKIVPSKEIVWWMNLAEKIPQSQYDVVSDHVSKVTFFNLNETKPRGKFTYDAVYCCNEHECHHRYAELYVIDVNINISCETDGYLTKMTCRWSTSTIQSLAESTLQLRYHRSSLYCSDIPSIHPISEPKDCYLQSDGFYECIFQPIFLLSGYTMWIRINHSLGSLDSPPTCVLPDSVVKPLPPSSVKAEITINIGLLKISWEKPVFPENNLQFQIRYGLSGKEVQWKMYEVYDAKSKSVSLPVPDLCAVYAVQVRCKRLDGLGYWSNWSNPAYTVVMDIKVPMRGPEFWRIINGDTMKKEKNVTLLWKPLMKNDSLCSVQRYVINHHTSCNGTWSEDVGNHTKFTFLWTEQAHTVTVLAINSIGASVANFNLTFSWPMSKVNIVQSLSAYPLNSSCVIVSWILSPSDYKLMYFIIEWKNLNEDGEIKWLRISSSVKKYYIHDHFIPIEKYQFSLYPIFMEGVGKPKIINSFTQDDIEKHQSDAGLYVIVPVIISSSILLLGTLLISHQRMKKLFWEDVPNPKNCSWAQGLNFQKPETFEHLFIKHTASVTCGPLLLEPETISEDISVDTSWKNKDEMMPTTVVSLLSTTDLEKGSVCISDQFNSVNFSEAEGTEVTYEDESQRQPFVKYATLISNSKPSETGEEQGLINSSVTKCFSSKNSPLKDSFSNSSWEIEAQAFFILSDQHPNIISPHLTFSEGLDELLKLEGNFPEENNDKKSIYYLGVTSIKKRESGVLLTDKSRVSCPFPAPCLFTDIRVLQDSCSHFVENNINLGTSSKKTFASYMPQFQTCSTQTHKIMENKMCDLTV

B1: H4H18446P2 (antibody, human IgG4, V domains shown)
VH: EVQLVESGGGLVQPGGSLRLSCAASGFTFSNYGMTWVRQAPGKGLEWVSAITGGGGSTYYSNSVKGRFTISRDNSKNTVYLRMNSVRAEDTAVYYCAKYKWNFVDDWGQGTTVTVSS
VL: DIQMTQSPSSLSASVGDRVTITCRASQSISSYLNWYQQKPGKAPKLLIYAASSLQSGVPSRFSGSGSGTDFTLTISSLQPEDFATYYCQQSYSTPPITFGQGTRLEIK
notes: Fully human antibody with human IgG4 Fc (H4H prefix)
B2: H4H16650P2 (antibody, human IgG4, V domains shown)
VH: QVQLVESGGGVVQPGKSLRLSCVASGFTFSSDAMYWVRQAPGKGLEWVAVIYYDGNYQYYEDSVKGRFTISRDNSQNTLDLQMNSLRVDDTAVYFCARLNWDYWYLDLWGRGTLVTVSS
VL: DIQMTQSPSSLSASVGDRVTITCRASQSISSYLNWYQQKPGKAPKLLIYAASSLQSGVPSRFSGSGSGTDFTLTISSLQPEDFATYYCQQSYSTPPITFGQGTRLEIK
notes: as for B1
B3: H4H16679P2 (antibody, human IgG4, V domains shown)
VH: QVQLVESGGGVVQPGRSLRLSCTASGFTFSSYAMYWVRQAPGKGLEWVSVIYYDGSYKYYADSVKGRFTISRDNSKNTLYLQMDSLRAEDTAVYYCASYNWNYWYFDFWGRGTLVTVSS
VL: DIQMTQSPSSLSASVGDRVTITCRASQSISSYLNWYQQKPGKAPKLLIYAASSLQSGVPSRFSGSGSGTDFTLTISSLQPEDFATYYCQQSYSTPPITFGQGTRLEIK
notes: as for B1
B4: H4H17321P2 (antibody, human IgG4, V domains shown)
VH: QVQLVESGGGVVQPGRSLRLSCEASGFSSSDNAMYWVRQAPGKGLEWVSVIYHDGSYKYYEDSVKGRFTIARDNSKNTLYLQMNSLRAEDTAVYYCARYNWNHWYFDVWGRGTLVTVSS
VL: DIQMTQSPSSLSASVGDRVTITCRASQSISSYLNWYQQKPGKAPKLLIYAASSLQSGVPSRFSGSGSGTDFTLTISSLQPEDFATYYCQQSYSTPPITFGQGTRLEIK
notes: as for B1
B5: H4H18449P2 (antibody, human IgG4, V domains shown)
VH: EVQLVESGGGLVQPGGSLRLSCVASGFTFNKYDMHWVRQTTGKGLEWVSGIDTDGDTYYPGSVKGRFTISRENAENSLYLQMNGLRVGDTAVYYCARWPWSGFYGAFDIWGQGTMVTVSS
VL: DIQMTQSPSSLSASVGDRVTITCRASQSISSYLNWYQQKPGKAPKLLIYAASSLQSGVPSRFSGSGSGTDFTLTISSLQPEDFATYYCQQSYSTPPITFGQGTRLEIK
notes: as for B1
B6: H4H18445P2 (antibody, human IgG4, V domains shown)
VH: QVQLQESGPGLVKPSQTLSLTCTVSGGSISSGGDYWSWIRQLPGKGLEWIGYIYYSGSAYYNPSLKSRGTISIDTSKNQFSLKLTSVTAADTAVYFCVKLRFLEWFLGGWFGPWGQGTLVTVSS
VL: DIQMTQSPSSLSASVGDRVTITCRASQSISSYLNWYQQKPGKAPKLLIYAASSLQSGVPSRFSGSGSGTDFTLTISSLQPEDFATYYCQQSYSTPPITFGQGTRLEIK
notes: as for B1
B7: H4H17319P2 (antibody, human IgG4, V domains shown)
VH: QVQLVESGGSVVQPGRSLRLSCAASGFTFSTYAMYWVRQTPGKGLEWVAVLYSDGSNKYYIDSVKGRFTISRDTSTNTLYLQMSSLRADDSALYYCARLNWDYWYFDLWGRGTLVTVSS
VL: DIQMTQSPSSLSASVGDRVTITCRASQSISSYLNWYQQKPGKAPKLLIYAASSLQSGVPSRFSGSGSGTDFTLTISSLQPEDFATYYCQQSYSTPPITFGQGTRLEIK
notes: as for B1
B8: H4H18417P2 (antibody, human IgG4, V domains shown)
VH: QVQLVESGGGVVQPGRSLRLSCAASGFTFSTYGMHWVRQAPGKGLEWVSVISYDESNKYYADSVKGRFTISRDNSKNALYLQMNSLRNEDTAVYYCARDRPFGLVTGWFDPWGQGTLVTVSS
VL: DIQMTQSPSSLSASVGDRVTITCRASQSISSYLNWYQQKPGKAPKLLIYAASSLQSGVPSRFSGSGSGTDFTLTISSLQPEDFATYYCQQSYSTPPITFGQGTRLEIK
notes: as for B1
B9: H4H18438P2 (antibody, human IgG4, V domains shown)
VH: QVQLVESGGGVVQPGRSLRLSCAASGFSFNTYGMHWVRQAPGKGLEWVTIIWYDGSIKYYADSVKGRFTISRDNSKNTLYLQMNSLRAEDTAVYYCARGGYSGYLYFDYWGQGTLVTVSS
VL: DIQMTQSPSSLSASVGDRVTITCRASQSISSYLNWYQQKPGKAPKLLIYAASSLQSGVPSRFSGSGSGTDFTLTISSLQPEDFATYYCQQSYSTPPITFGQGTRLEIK
notes: as for B1

Molecular target: T2, extracellular domain portion of LEPR protein expressed with a C-terminal human Fc tag (hLEPR.hFc) (human)
T2 construct: also called dimeric human LEPR
Test: blocking ELISA: 10 nM hLEPR.hFc to coated hLeptin, 500 nM Ab
Description: These antibody-protein or protein-protein complexes were then incubated for 1.5 hour at room temperature (RT). […] Samples were developed with a TMB solution (BD Biosciences, #555214; substrate A and B mixed at 1:1 ratio as per manufacturer's instructions) to produce a colorimetric reaction and then neutralized with 1M sulfuric acid before measuring absorbance at 450 nm on a Victor X5 plate reader.
Data analysis was performed using a sigmoidal dose-response model within Prism™ software (GraphPad). […] In the calculation, binding signal of 10 nM of hLEPR.hFc without the presence of the antibody was referenced as 100% binding or 0% blocking; and the baseline signal of buffer alone without the presence of hLEPR.hFc was referenced as 0% binding or 100% blocking.

How did the “% blockade” value turn out when B1 was run?
Its value is -5%.

How did the “% blockade” value turn out when B2 was run?
Its value is -7%.

With B3 as the binder, how does the “% blockade” value read?
The value was 7%.

B4 was tested. Which “% blockade” value did it give?
Its value is 6%.

How did the “% blockade” value turn out when B5 was run?
Its value is 8%.

B6 was tested. Which “% blockade” value did it give?
The value was 28%.

With B7 as the binder, how does the “% blockade” value read?
Its value is 9%.

Which “% blockade” value does the source give for B8 here?
The value was 16%.

B9 was tested. Which “% blockade” value did it give?
The value was 15%.

Molecular target: T1, full length human LEPR on cells
Test: FACS, HEK293/Stat3-luc/hLEPR-FL, 70 nM Ab

Which “Binding Ratio” value does the source give for B2 here?
Its value is 42 fold over unstained.

For B3, which “Binding Ratio” value is on record?
The value was 51 fold over unstained.

With B4 as the binder, how does the “Binding Ratio” value read?
The value was 46 fold over unstained.

With B7 as the binder, how does the “Binding Ratio” value read?
Its value is 47 fold over unstained.

Molecular target: T3, human LEPR Ig-CRH2-FNIII-MMH (human, UniProt P48357 330-839, limits assumed)
T3 construct: domain: Ig-CRH2-FNIII; Transiently expressed, captured from supernatant on anti-myc beads
Test: Luminex, myc-captured LEPR domain
Description: (§1) Aliquots of microspheres with immobilized anti-myc monoclonal antibodies, prepared as described above, were added individually to 1 mL of the each of these protein supernatants. The microspheres were gently mixed, incubated for two hours at 25° C., washed twice with 1 mL of DBPS, centrifuged to remove the supernatant and finally resuspended in 1 mL of DPBS buffer. Forty-eight μL of anti-myc IgG coupled microspheres from individual reactions with full length human LEPR and with each of the human LEPR domain proteins were withdrawn and mixed together in 3.6 mL of PBS+20 mg/mL BSA+0.05% sodium azide (blocking buffer).
(§2) From this mixed pool, 75 μL of microspheres were plated per well on a 96 well filter plate (Millipore, Cat. No: MSBVN1250) and mixed with 25 μL of individual anti-human LEPR monoclonal antibodies (0.5 or 5 µg/mL), incubated for two hours at 25° C. and then washed twice with 200 μL of DPBS with 0.05% Tween 20 (washing buffer). […] After 30 minutes, the samples were washed twice with 200 μL of washing buffer and resuspended in 150 μL of wash buffer. The Median Fluorescence intensity (MFI) of the microspheres was measured in a Luminex Analyzer.

T3 sequence (P48357 other isoform, or with tags, fused parts or gaps limits assumed): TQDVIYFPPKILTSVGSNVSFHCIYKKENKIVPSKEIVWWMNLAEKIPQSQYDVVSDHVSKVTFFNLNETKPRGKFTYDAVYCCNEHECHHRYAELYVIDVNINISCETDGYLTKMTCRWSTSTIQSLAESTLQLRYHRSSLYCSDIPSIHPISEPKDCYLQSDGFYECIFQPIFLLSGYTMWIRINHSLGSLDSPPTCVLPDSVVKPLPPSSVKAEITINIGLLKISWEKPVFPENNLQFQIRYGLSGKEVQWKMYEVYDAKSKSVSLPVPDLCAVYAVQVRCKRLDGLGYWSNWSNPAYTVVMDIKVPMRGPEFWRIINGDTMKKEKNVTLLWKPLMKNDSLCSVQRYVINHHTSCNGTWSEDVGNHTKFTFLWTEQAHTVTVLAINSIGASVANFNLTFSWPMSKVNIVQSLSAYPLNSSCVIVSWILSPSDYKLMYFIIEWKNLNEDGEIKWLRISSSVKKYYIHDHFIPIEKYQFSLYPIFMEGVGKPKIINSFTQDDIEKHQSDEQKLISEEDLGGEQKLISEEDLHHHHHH

With B1 as the binder, how does the MFI read?
Its MFI is 16900 MFI.

B2 was tested. Which MFI did it give?
The MFI was 110 MFI.

B3 was tested. Which MFI did it give?
The MFI was 42 MFI.

For B4, which MFI is on record?
Its MFI is 14 MFI.

B5 was tested. Which MFI did it give?
Its MFI is 43 MFI.

B6 was tested. Which MFI did it give?
Its MFI is 14500 MFI.

Which MFI does the source give for B7 here?
The MFI was 8 MFI.

Which MFI does the source give for B8 here?
The MFI was 37 MFI.

How did the MFI turn out when B9 was run?
The MFI was 468 MFI.

Molecular target: T4, human LEPR CRH1-Ig (D2,D3)-MMH (human, UniProt P48357 230-427, limits assumed)
T4 construct: domain: CRH1-Ig (D2,D3); Transiently expressed, captured from supernatant on anti-myc beads
Test: Luminex, myc-captured LEPR domain
Description: as §1, §2

T4 sequence (P48357 other isoform, or with tags, fused parts or gaps limits assumed): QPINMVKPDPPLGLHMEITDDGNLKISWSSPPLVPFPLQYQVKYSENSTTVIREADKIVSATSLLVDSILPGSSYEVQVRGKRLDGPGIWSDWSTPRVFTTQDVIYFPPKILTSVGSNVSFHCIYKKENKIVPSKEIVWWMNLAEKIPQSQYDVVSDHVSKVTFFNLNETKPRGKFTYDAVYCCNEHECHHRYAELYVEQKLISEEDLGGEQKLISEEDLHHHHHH

How did the MFI turn out when B2 was run?
Its MFI is 74 MFI.

B3 was tested. Which MFI did it give?
Its MFI is 34 MFI.

For B4, which MFI is on record?
The MFI was 15 MFI.

How did the MFI turn out when B5 was run?
The MFI was 42 MFI.

B6 was tested. Which MFI did it give?
Its MFI is 40 MFI.

With B7 as the binder, how does the MFI read?
The MFI was 14 MFI.

With B8 as the binder, how does the MFI read?
The MFI was 5500 MFI.

With B9 as the binder, how does the MFI read?
Its MFI is 8880 MFI.

Molecular target: T5, human LEPR Ig (D3)-MMH (human, UniProt P48357 340-427, limits assumed)
T5 construct: domain: Ig (D3); Transiently expressed, captured from supernatant on anti-myc beads
Test: Luminex, myc-captured LEPR domain
Description: as §1, §2

T5 sequence (P48357 other isoform, or with tags, fused parts or gaps limits assumed): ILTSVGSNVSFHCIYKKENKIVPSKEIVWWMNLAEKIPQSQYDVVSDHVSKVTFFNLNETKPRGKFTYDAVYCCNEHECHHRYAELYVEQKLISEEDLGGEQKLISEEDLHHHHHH

B1 was tested. Which MFI did it give?
Its MFI is 25 MFI.

Which MFI does the source give for B2 here?
Its MFI is 10 MFI.

B3 was tested. Which MFI did it give?
Its MFI is 14 MFI.

B4 was tested. Which MFI did it give?
The MFI was 7 MFI.

With B5 as the binder, how does the MFI read?
The MFI was 24 MFI.

With B6 as the binder, how does the MFI read?
The MFI was 19 MFI.

With B7 as the binder, how does the MFI read?
The MFI was 8 MFI.

How did the MFI turn out when B8 was run?
The MFI was 17 MFI.

Which MFI does the source give for B9 here?
The MFI was 30 MFI.

Molecular target: rat LEPR extracellular domain expressed with a C-terminal myc-myc-hexahistidine tag (rLEPR.mmh) (rat, UniProt Q62959 22-839)
Test: SPR, captured mAb, 25C and 37C

rat LEPR extracellular domain expressed with a C-terminal myc-myc-hexahistidine tag (rLEPR.mmh), sequence (Q62959 other isoform, or with tags, fused parts or gaps): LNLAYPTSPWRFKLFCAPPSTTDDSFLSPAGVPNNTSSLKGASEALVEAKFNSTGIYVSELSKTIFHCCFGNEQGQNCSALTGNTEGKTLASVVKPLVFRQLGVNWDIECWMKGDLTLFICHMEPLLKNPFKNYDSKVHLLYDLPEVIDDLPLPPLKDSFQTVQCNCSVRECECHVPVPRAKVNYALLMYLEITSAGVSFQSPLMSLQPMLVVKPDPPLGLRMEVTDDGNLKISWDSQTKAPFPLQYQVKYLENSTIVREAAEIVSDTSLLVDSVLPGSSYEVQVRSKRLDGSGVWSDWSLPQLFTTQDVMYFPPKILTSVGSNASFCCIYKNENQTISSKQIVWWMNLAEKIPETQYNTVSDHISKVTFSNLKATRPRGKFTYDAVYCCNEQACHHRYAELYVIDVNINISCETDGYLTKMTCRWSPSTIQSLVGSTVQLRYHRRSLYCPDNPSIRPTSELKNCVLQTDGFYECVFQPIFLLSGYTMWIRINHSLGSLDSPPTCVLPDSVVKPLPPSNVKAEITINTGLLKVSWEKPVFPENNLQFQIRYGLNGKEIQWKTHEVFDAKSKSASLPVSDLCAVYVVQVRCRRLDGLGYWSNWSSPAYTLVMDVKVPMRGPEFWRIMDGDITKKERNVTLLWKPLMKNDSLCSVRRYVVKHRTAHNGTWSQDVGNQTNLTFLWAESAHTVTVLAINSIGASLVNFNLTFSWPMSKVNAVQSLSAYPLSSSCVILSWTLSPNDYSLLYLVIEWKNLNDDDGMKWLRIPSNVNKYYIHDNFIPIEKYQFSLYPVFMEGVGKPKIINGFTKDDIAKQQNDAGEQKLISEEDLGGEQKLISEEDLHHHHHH

Does B1 bind?
Result: no binding

Does B2 bind?
Result: no binding

Does B3 bind?
Result: no binding

Does B4 bind?
Result: no binding

Does B5 bind?
Result: no binding

Does B6 bind?
Result: no binding

Does B7 bind?
Result: no binding

Does B8 bind?
Result: no binding

Does B9 bind?
Result: no binding

Molecular target: mouse LEPR extracellular domain expressed with a C-terminal myc-myc-hexahistidine tag (mLEPR.mmh) (mouse, UniProt P48356 22-839)
Test: SPR, captured mAb, 25C and 37C

mouse LEPR extracellular domain expressed with a C-terminal myc-myc-hexahistidine tag (mLEPR.mmh), sequence (P48356 other isoform, or with tags, fused parts or gaps): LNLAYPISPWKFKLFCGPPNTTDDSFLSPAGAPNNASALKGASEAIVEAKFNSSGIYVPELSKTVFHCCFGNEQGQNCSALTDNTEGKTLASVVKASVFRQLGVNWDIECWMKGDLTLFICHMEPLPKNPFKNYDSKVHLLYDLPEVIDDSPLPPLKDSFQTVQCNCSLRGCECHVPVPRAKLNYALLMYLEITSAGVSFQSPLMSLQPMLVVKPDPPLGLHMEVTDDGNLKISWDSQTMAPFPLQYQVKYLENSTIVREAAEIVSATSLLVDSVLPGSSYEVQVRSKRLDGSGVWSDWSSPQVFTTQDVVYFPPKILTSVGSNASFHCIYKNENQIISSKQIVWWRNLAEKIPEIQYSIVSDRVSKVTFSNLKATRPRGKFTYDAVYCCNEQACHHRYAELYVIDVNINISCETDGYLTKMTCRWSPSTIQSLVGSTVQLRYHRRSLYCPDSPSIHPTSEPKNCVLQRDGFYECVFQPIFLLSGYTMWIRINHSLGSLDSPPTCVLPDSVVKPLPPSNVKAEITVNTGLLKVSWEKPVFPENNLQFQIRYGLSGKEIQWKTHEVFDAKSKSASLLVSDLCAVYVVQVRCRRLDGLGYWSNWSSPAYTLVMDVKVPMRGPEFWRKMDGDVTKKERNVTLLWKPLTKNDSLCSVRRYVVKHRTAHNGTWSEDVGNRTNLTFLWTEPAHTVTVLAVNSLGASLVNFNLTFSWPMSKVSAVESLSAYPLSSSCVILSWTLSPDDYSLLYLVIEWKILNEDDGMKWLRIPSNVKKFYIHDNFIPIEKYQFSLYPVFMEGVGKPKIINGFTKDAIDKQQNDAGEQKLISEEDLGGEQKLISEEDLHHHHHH

Does B1 bind?
Result: no binding

Does B2 bind?
Result: no binding

Does B3 bind?
Result: no binding

Does B4 bind?
Result: no binding

Does B5 bind?
Result: no binding

Does B6 bind?
Result: no binding

Does B7 bind?
Result: no binding

Does B8 bind?
Result: no binding

Does B9 bind?
Result: no binding

Molecular target: T6, human LEPR extracellular domain expressed with a C-terminal myc-myc-hexahistidine tag (hLEPR.mmh) (human, UniProt P48357 22-839)
T6 construct: also called human LEPR-MMH; monomeric human LEPR
Test: Luminex, myc-captured full length extracellular domain
Description: as §1, §2

How did the MFI turn out when B1 was run?
The MFI was 10500 MFI.

How did the MFI turn out when B2 was run?
The MFI was 7600 MFI.

Which MFI does the source give for B3 here?
Its MFI is 7510 MFI.

Which MFI does the source give for B4 here?
The MFI was 4700 MFI.

For B5, which MFI is on record?
Its MFI is 7980 MFI.

B6 was tested. Which MFI did it give?
Its MFI is 6570 MFI.

Which MFI does the source give for B7 here?
Its MFI is 3300 MFI.

For B8, which MFI is on record?
The MFI was 4890 MFI.

How did the MFI turn out when B9 was run?
Its MFI is 6250 MFI.

Molecular target: extracellular domain of Macaca fascicularis LEPR fused with the transmembrane and cytosolic domains of human … (Macaca fascicularis; human, UniProt P48357 840-1165)
Test: cell-based or functional assay

Which results are given for B2?
% Activation: 82%; EC50, STAT3-Luc reporter, IMR-32/STAT3-Luc/MfLEPR cells: 0.266 nM

B3 was tested. Which “% Activation” value did it give?
Its value is 80%.

What about the “EC50, STAT3-Luc reporter, IMR-32/STAT3-Luc/MfLEPR cells” value (“EC50 … IMR-32/STAT3-Luc/MfLEPR cells” for short) of the same binder?
Its value is 0.249 nM.

For B4, which “% Activation” value is on record?
Its value is 78%.

And the “EC50 … IMR-32/STAT3-Luc/MfLEPR cells” value?
The value was 0.368 nM.

Which “% Activation” value does the source give for B7 here?
Its value is 76%.

And the “EC50 … IMR-32/STAT3-Luc/MfLEPR cells” value?
The value was 0.365 nM.
